According to patent publication EP4442322A1:
Each block holds one binder with its values, some of them ahead of it.

Molecular target: ASGPR of the murine amino acid sequence (murine)
Experiment: cell-based or functional assay

Sequence of ASGPR of the murine amino acid sequence (murine) (P34927 whole entry, chain 1 of 2): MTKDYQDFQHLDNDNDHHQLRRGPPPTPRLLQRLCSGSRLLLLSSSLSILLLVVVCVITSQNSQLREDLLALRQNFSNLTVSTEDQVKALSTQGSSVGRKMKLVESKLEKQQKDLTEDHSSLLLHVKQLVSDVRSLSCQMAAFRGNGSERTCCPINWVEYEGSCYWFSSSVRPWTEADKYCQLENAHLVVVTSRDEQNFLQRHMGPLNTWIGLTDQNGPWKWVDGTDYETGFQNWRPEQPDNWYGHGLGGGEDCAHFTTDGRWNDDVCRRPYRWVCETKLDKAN
Sequence of ASGPR of the murine amino acid sequence (murine) (P24721 whole entry, chain 2 of 2, further chain): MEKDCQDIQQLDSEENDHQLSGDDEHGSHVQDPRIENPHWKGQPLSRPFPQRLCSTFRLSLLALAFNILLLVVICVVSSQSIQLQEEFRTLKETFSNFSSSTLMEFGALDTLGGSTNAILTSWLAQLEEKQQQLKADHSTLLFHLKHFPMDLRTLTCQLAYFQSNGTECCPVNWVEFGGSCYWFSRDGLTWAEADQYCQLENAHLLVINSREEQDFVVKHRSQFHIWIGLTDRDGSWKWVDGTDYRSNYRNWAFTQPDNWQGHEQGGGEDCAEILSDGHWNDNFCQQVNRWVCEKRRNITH

activated cells (GFP), Q2 (Fig. 6F): 4.04%
activated cells (GFP), Q2 and Q3 in total (Fig. 6F): 9.44%
activated cells (GFP), Q3 (Fig. 6F): 5.4%
B1: CAR having the scFv of SEQ ID NO: 24 (C11), murine CD8 construct (mCD8) (protein)
chain: QIQLVQSGGGLVQPGGSLRLSCAGSGYTFSDHYMDWVRQAPGKGLEWVGRIRYKANSYSTEYAASVKGRFTISRDDSRNSLFLQMNSLKTEDTAVYYCARIRDRYYFDYWGQGALVTVSSGSASAPKLEEGEFSEARVQSVLTQPPSVSGAPGQRVTISCTGSSSNVGAGYDVHWYQQLPGAAPKLLIYGNSNRPSGVPDRFSGSKSGTSASLAISGLQSEDEADYYCAAWDDSLNGVVFGGGTKLTVLGQPKAAPSVTLFPPSSAAAGSEQKLISEEDLSHHHHHHSSVVPVLQKVNSTTTKPVLRTPSPVHPTGTSQPQRPEDCRPRGSVKGTGLDFACDIYIWAPLAGICVALLLSLIITLICYHRWTNSRRNRLLQSDYMNMTPRRPGLTRKPYQPYAPARDFAAYRPRAKFSRSAETAANLQDPNQLYNELNLGRREEYDVLEKKRARDPEMGGKQQRRRNPQEGVYNALQKDKMAEAYSEIGTKGERRRGKGHDGLYQGLSTATKDTYDALHMQTLAPR

activated cells (GFP), Q2 (Fig. 6E): 3.41%
activated cells (GFP), Q2 and Q3 in total (Fig. 6E): 13.3%
activated cells (GFP), Q3 (Fig. 6E): 9.86%
B2: CAR having the scFv of SEQ ID NO: 24 (C11), murine Ig-construct (mIg) (protein)
chain: QIQLVQSGGGLVQPGGSLRLSCAGSGYTFSDHYMDWVRQAPGKGLEWVGRIRYKANSYSTEYAASVKGRFTISRDDSRNSLFLQMNSLKTEDTAVYYCARIRDRYYFDYWGQGALVTVSSGSASAPKLEEGEFSEARVQSVLTQPPSVSGAPGQRVTISCTGSSSNVGAGYDVHWYQQLPGAAPKLLIYGNSNRPSGVPDRFSGSKSGTSASLAISGLQSEDEADYYCAAWDDSLNGVVFGGGTKLTVLGQPKAAPSVTLFPPSSAAAGSEQKLISEEDLSHHHHHHVPRDGGCKPCICTVPEVSSVFIFPPKPKDVLTITLTPKVTCVVVDISKDDPEVQFSWFVDDVEVHTAQTQPREEQFNSTFRSVSELPIMHQDWLNGKEFKCRVNSAAFPAPIEKTISKTKGRPKAPQVCTIPPPKEQMAKDKVSLTCMITDFFPEDITVEWQWNGQPAENYKNTQPIMDTDGSYFVYSKLNVQKSNWEAGNTFTCSVLHEGLHNHHTEKSLSHSPGVFLACVLGGSFGFLGFLGLCILCCVNSRRNRLLQSDYMNMTPRRPGLTRKPYQPYAPARDFAAYRPLRAKFSRSAETAANLQDPNQLYNELNLGRREEYDVLEKKRARDPEMGGKQQRRRNPQEGVYNALQKDKMAEAYSEIGTKGERRRGKGHDGLYQGLSTATKDTYDALHMQTLAPR

activated cells (GFP), Q2 (Fig. 9E): 3.7%
activated cells (GFP), Q2 and Q3 in total (Fig. 9E): 6.06%
activated cells (GFP), Q3 (Fig. 9E): 2.36%
B3: CAR having the scFv of SEQ ID NO: 26 (C3), murine Ig-construct (mIg) (protein)
chain: VHSQVTLKESGGGLVQPGGSLRLSCAASGFTFSSYAMSWVRQAPGKGLEWVSAISGSGGSTYYADSVKGRFTISRDNSKNTLYLQMNSLRAEDTAVYYCAKDLKQWLEDYWGQGTLVTVSSGSASAPKLEEGEFSEARVDVVMTQSPSTLSASVGDRVTITCRASQSIGPWLAWYQQKPGEAPKLLLYKASILEGGVPSRFSGRGSGTEFTLTISSLQPDDFATYYCQQYNTFGPTFGQGTKLEIKRTVAAPSVFDPVPRDGGCKPCICTVPRDGGCKPCICTVPEVSSVFIFPPKPKDVLTITLTPKVTCVVVDISKDDPEVQFSWFVDDVEVHTAQTQPREEQFNSTFRSVSELPIMHQDWLNGKEFKCRVNSAAFPAPIEKTISKTKGRPKAPQVCTIPPPKEQMAKDKVSLTCMITDFFPEDITVEWQWNGQPAENYKNTQPIMDTDGSYFVYSKLNVQKSNWEAGNTFTCSVLHEGLHNHHTEKSLSHSPGVFLACVLGGSFGFLGFLGLCILCCVNSRRNRLLQSDYMNMTPRRPGLTRKPYQPYAPARDFAAYRPLRAKFSRSAETAANLQDPNQLYNELNLGRREEYDVLEKKRARDPEMGGKQQRRRNPQEGVYNALQKDKMAEAYSEIGTKGERRRGKGHDGLYQGLSTATKDTYDALHMQTLAPR
